This is an account of results in paper PMC7276322.

The experiment addresses CV30 (human). Briefly: BLI. A general note: In BLI a coated tip is dipped into the sample, and binding shifts an interference pattern.

pKd: −log10 of the molar value.

The term pKd denotes the Kd on a negative log10 scale, so that one unit is a factor of ten. A higher pKd goes with a low Kd. “SARS-CoV-2 receptor binding domain (from UniProt P0DTC2 319-591) (domain or fragment)” showed a pKd of 8.44.
